Settings: Thermal, whole UniProt chain shown
[1] = Glycine max, pH 7, DSC, HEPES/MOPS/ACES/Tris/triethanolamine/phosphate 17 mM/17 mM/17 mM/10 mM/13 mM/10 mM
[2] = Bos taurus, pH 6.5, Absorbance, None, reversible: no
[3] = Bos taurus, pH 7.4, Absorbance, phosphate, reversible: no

B1: Tryptophan synthase alpha chain wild type, P0A877 (protein)
chain: MERYESLFAQLKERKEGAFVPFVTLGDPGIEQSLKIIDTLIEAGADALELGIPFSDPLADGPTIQNATLRAFAAGVTPAQCFEMLALIRQKHPTIPIGLLMYANLVFNKGIDEFYAQCEKVGVDSVLVADVPVEESAPFRQAALRHNVAPIFICPPNADDDLLRQIASYGRGYTYLLSRAGVTGAENRAALPLNHLVAKLKEYNAAPPLQGFGISAPDQVKAAIDAGAAGAISGSAIVKIIEQHINEPEKMLAALKVFVQPMKAATRS
Tm (Escherichia coli (strain K12), pH 8.98, DSC, sodium tetraborate 1 mM): 54.2 °C

B2: Trypsin inhibitor B wild type, P01071 (protein)
chain: DFVLDNEGNPLSNGGTYYILSDITAFGGIRAAPTGNERCPLTVVQSRNELDKGIGTIISSPFRIRFIAEGNPLRLKFDSFAVIMLCVGIPTEWSVVEDLPEGPAVKIGENKDAVDGWFRIERVSDDEFNNYKLVFCTQQAEDDKCGDIGISIDHDDGTRRLVVSKNKPLVVQFQKVDKESL
Tm [1]: 59 °C
heat capacity change of unfolding [1]: 2.63 kcal/mol/K
unfolding enthalpy (calorimetric) [1]: 103 kcal/mol

B3: Beta-lactoglobulin wild type, P02754 (protein)
chain: MKCLLLALALTCGAQALIVTQTMKGLDIQKVAGTWYSLAMAASDISLLDAQSAPLRVYVEELKPTPEGDLEILLQKWENGECAQKKIIAEKTKIPAVFKIDALNENKVLVLDTDYKKYLLFCMENSAEPEQSLACQCLVRTPEVDDEALEKFDKALKALPMHIRLSFNPTQLEEQCHI
Tm (Bos taurus, pH 4, DSC, Unknown): 82 °C
Tm [2]: 80.1 °C
unfolding enthalpy (van 't Hoff) [2]: 55.5 kcal/mol
Tm [3]: 65.9 °C
unfolding enthalpy (van 't Hoff) [3]: 39.9 kcal/mol
